Data as given in PMC4822050, “Hemi-methylated DNA opens a closed conformation of UHRF1 to facilitate its histone recognition” (Nature Communications, 2016).
Where a chain is given by its changes, count along the chain named.

Assays:
Assay in all cases: ITC; 0.05 mM protein in the cell, 0.5 mM protein or peptide in the syringe, iTC200, 18 °C, 10 mM HEPES pH 8.0, 100 mM NaCl
Settings in all cases: both partners purified
[1] = molecular target: T1, full-length UHRF1 (residues 1–793) (human, UniProt Q96T88 1-793)
T1 construct: human UHRF1, residues 1–793; monomer by gel filtration; also called wild-type UHRF1; ICBP90
T1 sequence (looked up): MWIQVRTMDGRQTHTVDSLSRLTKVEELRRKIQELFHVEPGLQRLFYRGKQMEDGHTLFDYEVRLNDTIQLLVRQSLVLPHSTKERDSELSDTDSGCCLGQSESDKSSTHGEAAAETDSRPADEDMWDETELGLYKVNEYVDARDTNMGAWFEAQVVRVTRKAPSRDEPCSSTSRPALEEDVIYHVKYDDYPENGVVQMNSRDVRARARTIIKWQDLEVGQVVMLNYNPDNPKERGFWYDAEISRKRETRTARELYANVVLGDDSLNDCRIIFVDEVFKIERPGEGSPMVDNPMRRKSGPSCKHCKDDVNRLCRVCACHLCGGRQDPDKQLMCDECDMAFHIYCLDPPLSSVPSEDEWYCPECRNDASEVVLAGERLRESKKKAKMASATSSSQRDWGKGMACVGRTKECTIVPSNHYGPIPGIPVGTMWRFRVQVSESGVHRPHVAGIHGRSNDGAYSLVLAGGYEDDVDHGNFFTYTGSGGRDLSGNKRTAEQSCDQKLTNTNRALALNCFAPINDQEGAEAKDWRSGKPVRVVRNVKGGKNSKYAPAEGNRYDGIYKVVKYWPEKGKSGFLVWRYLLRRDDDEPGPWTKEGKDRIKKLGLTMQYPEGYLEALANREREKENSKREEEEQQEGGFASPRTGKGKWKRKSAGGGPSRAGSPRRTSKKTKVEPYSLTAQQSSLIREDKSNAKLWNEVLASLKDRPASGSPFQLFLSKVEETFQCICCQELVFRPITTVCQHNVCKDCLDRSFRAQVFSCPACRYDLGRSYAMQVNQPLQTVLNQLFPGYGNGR

[2] = molecular target: T2, TTD–PHD of UHRF1 (residues 134–366) (human, UniProt Q96T88 134-366)
T2 sequence (looked up): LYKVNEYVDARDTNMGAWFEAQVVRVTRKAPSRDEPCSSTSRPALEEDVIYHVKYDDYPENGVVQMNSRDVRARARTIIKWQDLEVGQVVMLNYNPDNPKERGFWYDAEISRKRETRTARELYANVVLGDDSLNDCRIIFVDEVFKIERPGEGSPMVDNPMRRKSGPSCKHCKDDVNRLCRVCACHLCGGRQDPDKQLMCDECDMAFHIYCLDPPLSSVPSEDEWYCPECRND

[3] = molecular target: T3, UHRF1^Δ627–674 (human, UniProt Q96T88 1-793, Δ627–674)
T3 construct: also called spacer deletion mutant
T3 sequence (looked up): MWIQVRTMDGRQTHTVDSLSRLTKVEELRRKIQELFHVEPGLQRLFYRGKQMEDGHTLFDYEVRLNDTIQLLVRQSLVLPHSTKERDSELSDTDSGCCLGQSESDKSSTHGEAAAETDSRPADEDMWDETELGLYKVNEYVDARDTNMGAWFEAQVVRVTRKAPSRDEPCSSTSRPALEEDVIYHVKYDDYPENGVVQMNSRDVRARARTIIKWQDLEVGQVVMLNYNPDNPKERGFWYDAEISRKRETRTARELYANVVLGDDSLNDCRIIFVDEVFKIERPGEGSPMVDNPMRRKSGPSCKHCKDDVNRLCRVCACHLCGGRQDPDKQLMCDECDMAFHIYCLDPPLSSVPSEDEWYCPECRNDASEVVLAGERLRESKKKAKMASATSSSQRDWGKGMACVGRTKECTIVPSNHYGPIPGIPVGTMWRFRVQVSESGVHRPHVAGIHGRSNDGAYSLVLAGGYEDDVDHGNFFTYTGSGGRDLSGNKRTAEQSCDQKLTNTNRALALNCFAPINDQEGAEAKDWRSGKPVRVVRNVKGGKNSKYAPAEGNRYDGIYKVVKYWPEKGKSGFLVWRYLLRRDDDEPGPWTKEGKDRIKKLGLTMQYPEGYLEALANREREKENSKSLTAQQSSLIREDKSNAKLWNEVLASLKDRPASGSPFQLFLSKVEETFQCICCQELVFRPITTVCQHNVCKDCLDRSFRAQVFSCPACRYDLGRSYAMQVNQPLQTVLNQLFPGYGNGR

[4] = molecular target: T4, UHRF1^D334A&Δ627–674 (human, UniProt Q96T88 1-793, D334A | Δ627–674)
T4 construct: human UHRF1 (1–793)
T4 sequence (looked up): T3 sequence (looked up) with D334A

- Kd [1]: 4.61 µM
- Kd [2]: 0.15 µM
- fold increase in binding affinity against full-length UHRF1 [3]: 4 fold
- Kd [4]: 8.69 µM
Binder: ARTKQTARKSTGGKAPR (peptide, UniProt P68431 2-18, looked up, trimethyl-lysine at K9, histone H3, residues 1–17) [H3K9me3 peptide (1–17)]
